How the values were obtained:
[1] = molecular target: T1, Effector SEQ ID NO: 2 (CLUST.200916 nuclease); assay: GFP fluorescence depletion in IVTT, 37 C, 12 h; PAM 5'-CCCA-3'
T1 chain: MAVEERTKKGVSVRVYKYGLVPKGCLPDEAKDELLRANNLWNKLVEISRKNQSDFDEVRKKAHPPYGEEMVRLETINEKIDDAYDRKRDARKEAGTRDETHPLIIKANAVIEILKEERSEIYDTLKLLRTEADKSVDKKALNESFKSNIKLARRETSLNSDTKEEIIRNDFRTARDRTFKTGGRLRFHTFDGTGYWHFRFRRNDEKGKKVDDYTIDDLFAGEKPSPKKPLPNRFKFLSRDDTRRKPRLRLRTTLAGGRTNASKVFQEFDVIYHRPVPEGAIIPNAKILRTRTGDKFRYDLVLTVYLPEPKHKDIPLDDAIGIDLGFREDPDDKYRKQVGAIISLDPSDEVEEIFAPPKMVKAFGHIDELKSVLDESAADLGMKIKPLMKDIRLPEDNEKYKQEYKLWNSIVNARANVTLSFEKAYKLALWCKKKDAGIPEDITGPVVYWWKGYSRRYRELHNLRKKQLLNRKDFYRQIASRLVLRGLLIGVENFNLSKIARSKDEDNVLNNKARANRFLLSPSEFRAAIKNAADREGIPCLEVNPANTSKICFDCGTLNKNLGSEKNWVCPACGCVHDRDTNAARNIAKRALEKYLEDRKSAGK
Source text: (§1) In this assay, an active CRISPR system designed to target GFP binds and cleaves the double-stranded DNA region encoding GFP, resulting in depletion of GFP fluorescence. The FDA assay involves in vitro transcription and translation, allowing production of an RNP from a DNA template encoding a CLUST.200916 effector and a DNA template containing a pre-crRNA sequence under a T7 promoter with direct repeat (DR)-spacer-direct repeat (DR); the spacer targeted GFP. In the same one-pot reaction, GFP and RFP were also produced as both the target and the fluorescence reporter (FIG. SA). The target GFP plasmid sequence is set forth in SEQ ID NO: 205, and the fluorescence reporter RFP plasmid sequence is set forth in SEQ ID NO: 206. GFP and RFP fluorescence values were measured every 20 min at 37° C. for 12 hr, using a TECAN Infinite F Plex plate reader. Since RFP was not targeted, its fluorescence was not affected and was therefore used as an internal signal control.
(§2) GFP signal was normalized to RFP signal, then the average fluorescence of three technical replicates was taken at each time point. GFP fluorescence depletion was then calculated by dividing the GFP signal of an effector incubated with a non-GFP targeting RNA guide (which instead targets a kanamycin resistance gene) by the GFP signal of an effector incubated with a GFP targeting RNA guide. […]

[2] = molecular target: T1, Effector SEQ ID NO: 2 (CLUST.200916 …); assay: GFP fluorescence depletion in IVTT, 37 C, 12 h; PAM 5'-ACCG-3'
Source text: as §1, §2

[3] = molecular target: T1, Effector SEQ ID NO: 2 (CLUST.200916 …); assay: GFP fluorescence depletion in IVTT, 37 C, 12 h; PAM 5'-CCCG-3'
Source text: as §1, §2

[4] = molecular target: T1, Effector SEQ ID NO: 2 (CLUST.200916 …); assay: GFP fluorescence depletion in IVTT, 37 C, 12 h; PAM 5'-TCCT-3'
Source text: as §1, §2

[5] = molecular target: T1, Effector SEQ ID NO: 2 (CLUST.200916 …); assay: GFP fluorescence depletion in IVTT, 37 C, 12 h; PAM 5'-TCCA-3'
Source text: as §1, §2

B1: pre-crRNA GFP Target 1 ; GFP Target 1 (ssRNA ; dsDNA)
RNA: GGUAUAACGACCCUGCGAAGUGGGGUGUAACUUCGACAGAGCGUACCAUCAGCUUCGAAGGCGACGGGUAUAACGACCCUGCGAAGUGGGGUGUAACUUCGACCUAACCCCUCUCUAAACGGAGGGGUUU
DNA 1: AGAGCGTACCATCAGCTTCGAAGGCGACGG
DNA 2: CCGTCGCCTTCGAAGCTGATGGTACGCTCT
[1]
  activity: > 1 depletion ratio

B2: pre-crRNA GFP Target 2 ; GFP Target 2 (ssRNA ; dsDNA)
RNA: GGUAUAACGACCCUGCGAAGUGGGGUGUAACUUCGACAAAAACUGGUUACCAAAUGCAGCCAAAUGAGUAUAACGACCCUGCGAAGUGGGGUGUAACUUCGACCUAACCCCUCUCUAAACGGAGGGGUUU
DNA 1: AAAAACTGGTTACCAAATGCAGCCAAATGA
DNA 2: TCATTTGGCTGCATTTGGTAACCAGTTTTT
[2]
  activity: > 1 depletion ratio

B3: pre-crRNA GFP Target 3 ; GFP Target 3 (ssRNA ; dsDNA)
RNA: GGUAUAACGACCCUGCGAAGUGGGGUGUAACUUCGACUAGUGCAGAUGUAUUUCGCUUUAAUGGUACGUAUAACGACCCUGCGAAGUGGGGUGUAACUUCGACCUAACCCCUCUCUAAACGGAGGGGUUU
DNA 1: TAGTGCAGATGTATTTCGCTTTAATGGTAC
DNA 2: GTACCATTAAAGCGAAATACATCTGCACTA
[3]
  activity: > 1 depletion ratio

B4: pre-crRNA GFP Target 4 ; GFP Target 4 (ssRNA ; dsDNA)
RNA: GGUAUAACGACCCUGCGAAGUGGGGUGUAACUUCGACUGAUGUGGCUCGGGUACUUGGCGAAACACUGUAUAACGACCCUGCGAAGUGGGGUGUAACUUCGACCUAACCCCUCUCUAAACGGAGGGGUUU
DNA 1: TGATGTGGCTCGGGTACTTGGCGAAACACT
DNA 2: AGTGTTTCGCCAAGTACCCGAGCCACATCA
[4]
  activity: > 1 depletion ratio

B5: pre-crRNA GFP Target 5 ; GFP Target 5 (ssRNA ; dsDNA)
RNA: GGUAUAACGACCCUGCGAAGUGGGGUGUAACUUCGACUGACGGCAUUGACGGAAGGUGCAAAACUGUGUAUAACGACCCUGCGAAGUGGGGUGUAACUUCGACCUAACCCCUCUCUAAACGGAGGGGUUU
DNA 1: TGACGGCATTGACGGAAGGTGCAAAACTGT
DNA 2: ACAGTTTTGCACCTTCCGTCAATGCCGTCA
[5]
  activity: > 1 depletion ratio

Reference: US20240011031, “COMPOSITIONS COMPRISING A NUCLEASE AND USES THEREOF” (Arbor Biotechnologies, Inc., published 2024)
